# Test results as given in publication PMC2908215 (Human mutation, 2010).
# Molecular target: T1, MLH1 p.Tyr750X (human, UniProt P40692 1-749)
# T1 sequence (looked up): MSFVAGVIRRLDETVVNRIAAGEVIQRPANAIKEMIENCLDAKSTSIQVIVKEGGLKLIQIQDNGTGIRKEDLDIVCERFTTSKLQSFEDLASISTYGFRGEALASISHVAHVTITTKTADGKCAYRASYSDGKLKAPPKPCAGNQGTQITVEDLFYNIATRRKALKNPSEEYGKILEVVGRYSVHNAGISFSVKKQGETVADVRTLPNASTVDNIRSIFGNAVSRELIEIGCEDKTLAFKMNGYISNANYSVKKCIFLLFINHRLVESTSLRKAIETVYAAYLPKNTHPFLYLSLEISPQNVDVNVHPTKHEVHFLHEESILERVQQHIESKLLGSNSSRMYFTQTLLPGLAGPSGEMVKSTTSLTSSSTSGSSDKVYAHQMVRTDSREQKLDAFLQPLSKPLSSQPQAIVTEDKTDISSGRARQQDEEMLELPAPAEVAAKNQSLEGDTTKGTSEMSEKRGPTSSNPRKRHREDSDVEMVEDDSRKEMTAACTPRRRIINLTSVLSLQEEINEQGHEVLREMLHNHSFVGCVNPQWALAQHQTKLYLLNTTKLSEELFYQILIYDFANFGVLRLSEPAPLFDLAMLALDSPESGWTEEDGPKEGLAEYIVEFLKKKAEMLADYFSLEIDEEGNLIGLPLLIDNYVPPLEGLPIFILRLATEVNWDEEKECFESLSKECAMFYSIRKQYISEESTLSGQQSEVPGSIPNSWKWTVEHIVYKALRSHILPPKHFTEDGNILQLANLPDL
# Assay: co-IP
binder,measurement,value
"PMS2 (natural protein, UniProt P54278 1-862, looked up) MERAESSSTEPAKAIKPIDRKSVHQICSGQVVLSLSTAVKELVENSLDAGATNIDLKLKDYGVDLIEVSDNGCGVEEENFEGLTLKHHTSKIQEFADLTQVETFGFRGEALSSLCALSDVTISTCHASAKVGTRLMFDHNGKIIQKTPYPRPRGTTVSVQQLFSTLPVRHKEFQRNIKKEYAKMVQVLHAYCIISAGIRVSCTNQLGQGKRQPVVCTGGSPSIKENIGSVFGQKQLQSLIPFVQLPPSDSVCEEYGLSCSDALHNLFYISGFISQCTHGVGRSSTDRQFFFINRRPCDPAKVCRLVNEVYHMYNRHQYPFVVLNISVDSECVDINVTPDKRQILLQEEKLLLAVLKTSLIGMFDSDVNKLNVSQQPLLDVEGNLIKMHAADLEKPMVEKQDQSPSLRTGEEKKDVSISRLREAFSLRHTTENKPHSPKTPEPRRSPLGQKRGMLSSSTSGAISDKGVLRPQKEAVSSSHGPSDPTDRAEVEKDSGHGSTSVDSEGFSIPDTGSHCSSEYAASSPGDRGSQEHVDSQEKAPKTDDSFSDVDCHSNQEDTGCKFRVLPQPTNLATPNTKRFKKEEILSSSDICQKLVNTQDMSASQVDVAVKINKKVVPLDFSMSSLAKRIKQLHHEAQQSEGEQNYRKFRAKICPGENQAAEDELRKEISKTMFAEMEIIGQFNLGFIITKLNEDIFIVDQHATDEKYNFEMLQQHTVLQGQRLIAPQTLNLTAVNEAVLIENLEIFRKNGFDFVIDENAPVTERAKLISLPTSKNWTFGPQDVDELIFMLSDSPGVMCRPSRVKQMFASRACRKSVMIGTALNTSEMKKLITHMGEMDHPWNCPHGRPTMRHIANLGVISQN",co-precipitated PMS2 in relation to wild-type,23 % of wild-type
